# B1: mouse recombinant VEGFR-1/Flt-1 Fc chimera (Fc fusion)
# chain: YGSGSKLKVPELSLKGTQHVMQAGQTLFLKCRGEAAHSWSLPTTVSQEDKRLSITPPSACGRDNRQFCSTLTLDTAQANHTGLYTCRYLPTSTSKKKKAESSIYIFVSDAGSPFIEMHTDIPKLVHMTEGRQLIIPCRVTSPNVTVTLKKFPFDTLTPDGQRITWDSRRGFIIANATYKEIGLLNCEATVNGHLYQTNYLTHRQTNTILDVQIRPPSPVRLLHGQTLVLNCTATTELNTRVQMSWNYPGKATKRASIRQRIDRSHSHNNVFHSVLKINNVESRDKGLYTCRVKSGSSFQSFNTSVHVYEKGFISVKHRKQPVQETTAGRRSYRLSMKVKAFPSPEIVWLKDGSPATLKSARYLVHGYSLIIKDVTTEDAGDYTILLGIKQSRLFKNLTATLIVNVKPQIYEKSVSSLPSPPLYPLGSRQVLTCTVYGIPRPTITWLWHPCHHNHSKERYDFCTENEESFILDPSSNLGNRIESISQRMTVIEGTNKTVSTLVVADSQTPGIYSCRAFNKIGTVERNIKFYVTDVPNGFHVSLEKMPAEGEDLKLSCVVNKFLYRDITWILLRTVNNRTMHHSISKQKMATTQDYSITLNLVIKNVSLEDSGTYACRARNIYTGEDILRKTEVLVRDSEAPHLLQNLSDYEVSISGSTTLDCQARGVPAPQITWFKNNHKIQQEPGIILGPGNSTLFIERVTEEDEGVYRCRATNQKGAVESAAYLTVQGTSDKSNLE
# Assays:
# sFlt-1 (Homo sapiens) = sFlt-1 (Homo sapiens) (UniProt P17948); settings: cited from earlier work
# UniProt P17948, sequence (P17948 27-1338): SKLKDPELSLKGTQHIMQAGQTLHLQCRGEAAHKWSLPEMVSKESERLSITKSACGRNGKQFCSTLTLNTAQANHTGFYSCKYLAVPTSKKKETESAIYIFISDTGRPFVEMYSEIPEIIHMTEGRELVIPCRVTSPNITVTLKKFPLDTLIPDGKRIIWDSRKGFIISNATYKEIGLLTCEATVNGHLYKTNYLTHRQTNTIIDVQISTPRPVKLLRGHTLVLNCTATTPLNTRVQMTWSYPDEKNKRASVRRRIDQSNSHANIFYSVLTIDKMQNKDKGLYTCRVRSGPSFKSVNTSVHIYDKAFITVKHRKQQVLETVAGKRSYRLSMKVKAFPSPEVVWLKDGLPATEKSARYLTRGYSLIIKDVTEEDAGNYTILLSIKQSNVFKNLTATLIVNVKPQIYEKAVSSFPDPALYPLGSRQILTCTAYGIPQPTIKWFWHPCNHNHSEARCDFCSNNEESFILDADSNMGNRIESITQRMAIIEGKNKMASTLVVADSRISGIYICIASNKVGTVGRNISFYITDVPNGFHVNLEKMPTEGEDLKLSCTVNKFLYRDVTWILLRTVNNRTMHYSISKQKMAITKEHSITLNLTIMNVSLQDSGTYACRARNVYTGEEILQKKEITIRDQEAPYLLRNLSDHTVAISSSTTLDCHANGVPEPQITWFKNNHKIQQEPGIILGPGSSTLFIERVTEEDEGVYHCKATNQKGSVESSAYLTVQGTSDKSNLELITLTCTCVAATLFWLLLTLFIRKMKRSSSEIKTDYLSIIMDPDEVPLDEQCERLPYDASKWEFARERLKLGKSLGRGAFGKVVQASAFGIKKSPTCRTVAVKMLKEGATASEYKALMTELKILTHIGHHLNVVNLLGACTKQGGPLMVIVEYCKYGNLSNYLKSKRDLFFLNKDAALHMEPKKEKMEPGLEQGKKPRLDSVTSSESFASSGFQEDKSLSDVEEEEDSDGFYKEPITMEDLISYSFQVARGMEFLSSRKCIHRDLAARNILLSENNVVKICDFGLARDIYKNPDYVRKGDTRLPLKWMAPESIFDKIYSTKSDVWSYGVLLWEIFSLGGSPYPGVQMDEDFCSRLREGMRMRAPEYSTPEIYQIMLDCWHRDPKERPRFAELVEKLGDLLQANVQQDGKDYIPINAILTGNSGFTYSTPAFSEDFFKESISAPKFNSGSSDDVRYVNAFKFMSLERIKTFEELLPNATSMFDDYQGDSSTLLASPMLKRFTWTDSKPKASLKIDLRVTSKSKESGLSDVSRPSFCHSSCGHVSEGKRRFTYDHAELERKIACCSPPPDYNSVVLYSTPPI
# human VEGF (human) [1] = biological target: human VEGF (human) (UniProt P15692)
# human VEGF (human) [2] = biological target: human VEGF (human) (UniProt P15692); remark: listed apart in the source
# mouse VEGF (mouse) = mouse VEGF (mouse) (UniProt Q00731)
molecule,measurement,setting,value
VEGF (from UniProt P15692),Kd,sFlt-1 (Homo sapiens),0.03 nM
human recombinant VEGFR-1/Flt-1 Fc chimera (from UniProt P17948-2 27-687) (Fc fusion),"VEGFR-2 phosphorylation in HUVECs with VEGF, human sFlt-1 and 2 times to 4 times molar excess of the antibody 27H6",human VEGF (human) [1],89 % of maximum
same,"VEGFR-2 phosphorylation in HUVECs with human VEGF, human sFlt-1 and a 4-fold molar excess of the antibody 21B3 (no letters)",human VEGF (human) [2],85 % of maximum
B1,"VEGFR-2 phosphorylation in HUVECs with mouse VEGF, mouse sFlt-1 and a 10-fold molar excess of the antibody 21B3 (no letters)",mouse VEGF (mouse),85 % of maximum
